Data on two substances can be found in article PMC7614608.

One may read the Kd as the constant that tells how readily two partners part at equilibrium.

For one data set, the system named is ALYREFN (human). Briefly: filter binding. To be noted: Filter binding: 150 mM KCl, 20 mM HEPES pH 7.9, 2 mM MgCl2, 5% glycerol, 0.5 mM TCEP, +/-1 mM ATPgS, 50 nM RNA, 20 C, 45 min; EJC assembly for TREX-EJC-RNA: ….
A further data set has as its system UAP56 (human). Nature of the data set: filter binding. Conditions: Filter binding: 150 mM KCl, 20 mM HEPES pH 7.9, 2 mM MgCl2, 5% glycerol, 0.5 mM TCEP, +/-1 mM ATPgS, 50 nM RNA, 20 C, 45 min; EJC assembly for TREX-EJC-RNA: ….
Data set [1] concerns the target ALYREF UBM (Homo sapiens) (UniProt Q86V81). To be noted: cited from earlier work.

UAP56, sequence (Q13838 2-428): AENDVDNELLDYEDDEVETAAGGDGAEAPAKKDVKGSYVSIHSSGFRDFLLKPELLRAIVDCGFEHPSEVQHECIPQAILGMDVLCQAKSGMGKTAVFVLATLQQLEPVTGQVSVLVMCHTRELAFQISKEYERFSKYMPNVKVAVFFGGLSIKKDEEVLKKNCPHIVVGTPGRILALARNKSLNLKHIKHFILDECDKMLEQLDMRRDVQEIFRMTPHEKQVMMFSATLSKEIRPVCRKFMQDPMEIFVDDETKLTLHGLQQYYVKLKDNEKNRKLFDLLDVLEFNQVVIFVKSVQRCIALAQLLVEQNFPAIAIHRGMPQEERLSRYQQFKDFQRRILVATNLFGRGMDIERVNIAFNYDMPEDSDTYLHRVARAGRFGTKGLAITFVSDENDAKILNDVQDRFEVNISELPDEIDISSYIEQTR

For 400-nt AdML RNA, the figures for the Kd with ALYREFN (human) and in the data set on UAP56 (human) were 600 nM and 900 nM, respectively.
On to UAP56 (from UniProt Q13838), for which the Kd in data set [1] was 2900 nM.
